Reference: publication PMC4059526 (2014)

T1: SNF (sans fille) (Drosophila, UniProt P43332 1-216)
T1 sequence: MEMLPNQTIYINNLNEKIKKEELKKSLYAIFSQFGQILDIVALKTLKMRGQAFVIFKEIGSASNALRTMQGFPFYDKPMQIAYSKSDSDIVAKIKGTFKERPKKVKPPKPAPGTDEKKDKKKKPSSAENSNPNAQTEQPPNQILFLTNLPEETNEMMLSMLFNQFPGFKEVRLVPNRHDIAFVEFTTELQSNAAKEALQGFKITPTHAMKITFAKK

T2: SNF (Drosophila melanogaster, UniProt P43332)
T2 chain: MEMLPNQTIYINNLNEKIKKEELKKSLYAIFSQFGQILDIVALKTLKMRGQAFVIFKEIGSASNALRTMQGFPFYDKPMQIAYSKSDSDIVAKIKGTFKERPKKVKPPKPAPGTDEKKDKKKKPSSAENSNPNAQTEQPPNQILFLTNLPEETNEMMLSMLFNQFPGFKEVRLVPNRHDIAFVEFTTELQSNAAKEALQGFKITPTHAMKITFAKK


Columns and labels:
SNF (sans fille) = molecular target: T1, SNF (sans fille); test: 2-aminopurine fluorescence and CD
SNF = molecular target: T2, SNF

| Kd (SNF) | Binder | binding result (SNF (sans fille)) |
| --- | --- | --- |
|  | GGCCGUAUUGCAGUACCGCGGCC (structured_RNA, 2-aminopurine replaces A at position 15 (3'-loop adenine)) [2AP-SLIV] | binds |
| 4 nM | U2A' (protein, SLIV RNA bound) MVKLTPELINQSMQYINPCRERELDLRGYKIPQIENLGATLDQFDTIDLSDNDLRKLDNLPHLPRLKCLLLNNNRILRISEGLEEAVPNLGSIILTGNNLQELSDLEPLVGFTKLETICLLINPVSTKPNYREYMAYKFPQLRLLDFRKIKQKDRQAAQEFFRTKQGKDVLKEISRKSKMSAAAAIAAEAGNGKGRGSEGGRLANPQDMQRIREAIKRASSLAEVERLSQILQSGQLPDKFQHEMEAVAQNGAGHNGSGAVAMEY |  |
